Reference: publication PMC3672139

Target: T1, RB1 (human) (UniProt P06400)
T1 sequence: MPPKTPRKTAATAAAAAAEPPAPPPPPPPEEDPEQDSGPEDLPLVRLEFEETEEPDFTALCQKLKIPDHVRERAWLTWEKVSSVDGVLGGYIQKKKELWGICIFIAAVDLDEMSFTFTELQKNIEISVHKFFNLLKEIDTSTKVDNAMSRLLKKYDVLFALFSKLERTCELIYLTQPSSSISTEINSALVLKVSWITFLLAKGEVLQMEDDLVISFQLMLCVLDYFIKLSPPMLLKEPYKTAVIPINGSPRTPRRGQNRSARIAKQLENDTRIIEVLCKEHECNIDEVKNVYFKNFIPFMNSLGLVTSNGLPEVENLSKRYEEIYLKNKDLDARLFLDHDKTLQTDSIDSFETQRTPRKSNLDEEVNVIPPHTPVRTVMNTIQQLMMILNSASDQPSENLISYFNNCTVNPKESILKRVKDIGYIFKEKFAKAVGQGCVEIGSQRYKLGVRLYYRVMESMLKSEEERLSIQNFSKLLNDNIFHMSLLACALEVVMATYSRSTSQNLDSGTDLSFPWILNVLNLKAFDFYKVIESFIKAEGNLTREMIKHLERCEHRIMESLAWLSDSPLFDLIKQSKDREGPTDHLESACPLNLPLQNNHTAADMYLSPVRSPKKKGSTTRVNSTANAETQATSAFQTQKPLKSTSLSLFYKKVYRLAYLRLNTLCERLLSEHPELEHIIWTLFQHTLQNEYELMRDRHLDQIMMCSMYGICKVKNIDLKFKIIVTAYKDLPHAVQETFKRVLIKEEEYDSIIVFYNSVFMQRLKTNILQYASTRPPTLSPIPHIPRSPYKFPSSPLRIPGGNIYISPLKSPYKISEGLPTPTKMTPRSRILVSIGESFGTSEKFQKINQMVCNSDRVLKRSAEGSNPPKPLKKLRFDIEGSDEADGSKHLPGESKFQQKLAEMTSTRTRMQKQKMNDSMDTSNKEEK
Experiment: SPR
Settings: DNA immobilized; 650 mM NaCl; 10 mM Tris-HCl, 150 mM NaCl, 5 mM KCl, pH 7.4; EMSA room temperature 30 min, 12% PAGE in TBE; SPR 25 C (RB1 SPR with 650 mM NaCl)

For CGGGGGGTTTTGGGCGGC [RB1 G4], the Kd was 0.44 µM.
